We go through one substance from US20230330196.

The target in this series is programmed death-1 homolog (PD-1H) of mouse mononuclear bone marrow cells (UniProt Q9D659).
programmed death-1 homolog (PD-1H) of mouse mononuclear bone marrow cells, sequence (Q9D659 33-308): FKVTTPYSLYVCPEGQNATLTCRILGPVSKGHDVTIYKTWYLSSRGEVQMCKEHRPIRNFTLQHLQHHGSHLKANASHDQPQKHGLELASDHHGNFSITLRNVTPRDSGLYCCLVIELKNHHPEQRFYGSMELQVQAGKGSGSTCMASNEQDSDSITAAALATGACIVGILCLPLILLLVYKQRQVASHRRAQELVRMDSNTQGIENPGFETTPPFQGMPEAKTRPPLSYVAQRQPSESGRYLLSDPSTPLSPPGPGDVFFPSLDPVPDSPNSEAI

In the case of “MMP-13 (added to mouse osteoclast cultures)”, the “OCL fusion and activation, ERK1/2 phosphorylation, NFATc1 and DC-STAMP upregulation in Pd-1h-/- versus WT OCLs” value is “While MMP-13 induced WT OCL fusion and activation, these effects were completely blocked in Pd-1h-/- OCLs in tandem with a loss in MMP-13 induced ERK1/2 phosphorylation, NFATc1 and DC-STAMP upregulation”.
